T1: human MuSK (human, UniProt O15146 24-495)
T1 construct: Recombinant protein coated on ELISA plates (R&D Systems cat. 10189-MK) or on the Biacore chip; also called human muscle-specific tyrosine protein kinase; full length human MuSK
T1 sequence: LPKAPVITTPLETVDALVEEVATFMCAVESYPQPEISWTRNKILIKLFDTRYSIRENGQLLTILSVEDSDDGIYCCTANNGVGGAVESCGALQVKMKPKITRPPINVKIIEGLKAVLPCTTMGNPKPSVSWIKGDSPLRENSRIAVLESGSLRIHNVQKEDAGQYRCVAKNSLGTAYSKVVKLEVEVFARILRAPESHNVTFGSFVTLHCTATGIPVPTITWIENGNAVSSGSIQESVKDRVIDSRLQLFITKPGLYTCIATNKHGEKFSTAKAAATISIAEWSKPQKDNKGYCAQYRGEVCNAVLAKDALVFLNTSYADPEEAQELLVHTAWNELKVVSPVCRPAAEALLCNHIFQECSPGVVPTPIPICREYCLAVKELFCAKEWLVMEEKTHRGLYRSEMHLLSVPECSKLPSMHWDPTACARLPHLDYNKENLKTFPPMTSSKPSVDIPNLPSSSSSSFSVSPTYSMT

T2: mouse MuSK (mouse, UniProt Q61006 22-494, limits assumed)
T2 construct: Coated on ELISA plates or on the Biacore chip; also called full length mouse MuSK; mouse MuSK (in house produced in HEK293 cells)
T2 sequence (looked up): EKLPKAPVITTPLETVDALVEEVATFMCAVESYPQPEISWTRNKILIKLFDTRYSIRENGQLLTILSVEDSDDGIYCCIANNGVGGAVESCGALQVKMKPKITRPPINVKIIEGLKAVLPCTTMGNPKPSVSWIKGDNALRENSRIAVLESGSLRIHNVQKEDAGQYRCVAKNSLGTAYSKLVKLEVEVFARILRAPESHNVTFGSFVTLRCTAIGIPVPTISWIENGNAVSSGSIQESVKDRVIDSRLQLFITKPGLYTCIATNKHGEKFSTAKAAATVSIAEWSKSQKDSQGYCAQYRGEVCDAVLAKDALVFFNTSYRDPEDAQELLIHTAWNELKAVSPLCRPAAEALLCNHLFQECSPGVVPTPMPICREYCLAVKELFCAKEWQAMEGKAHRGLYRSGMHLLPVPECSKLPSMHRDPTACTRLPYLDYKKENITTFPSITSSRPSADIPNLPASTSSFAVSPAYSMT

T3: hECD: full-length extracellular region of human MuSK (E22 to T495) with C-terminal Avi- and His6-tags (human, UniProt O15146 22-495, biotinylated in vitro using the BirA enzyme)
T3 construct: also called human ECD; not shown: Avi- and His6-tags
T3 sequence: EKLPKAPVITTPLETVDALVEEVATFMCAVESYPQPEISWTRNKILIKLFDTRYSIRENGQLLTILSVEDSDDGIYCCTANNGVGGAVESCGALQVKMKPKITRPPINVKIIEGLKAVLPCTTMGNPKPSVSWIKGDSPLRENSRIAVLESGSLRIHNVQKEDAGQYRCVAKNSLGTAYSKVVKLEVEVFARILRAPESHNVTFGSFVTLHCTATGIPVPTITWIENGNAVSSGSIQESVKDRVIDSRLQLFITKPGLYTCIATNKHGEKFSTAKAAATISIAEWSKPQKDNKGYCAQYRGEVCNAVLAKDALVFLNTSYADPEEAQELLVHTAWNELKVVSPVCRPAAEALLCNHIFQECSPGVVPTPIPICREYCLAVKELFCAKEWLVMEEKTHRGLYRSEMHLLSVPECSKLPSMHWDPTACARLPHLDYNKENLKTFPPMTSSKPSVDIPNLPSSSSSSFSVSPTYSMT

T4: hFz: Fz domain and C-terminal flanking sequence of human MuSK (K314-T495) with C-terminal Avi- and His6-tags (human, UniProt O15146 314-495, biotinylated in vitro using the BirA enzyme)
T4 construct: also called human Fz; not shown: Avi- and His6-tags
T4 sequence: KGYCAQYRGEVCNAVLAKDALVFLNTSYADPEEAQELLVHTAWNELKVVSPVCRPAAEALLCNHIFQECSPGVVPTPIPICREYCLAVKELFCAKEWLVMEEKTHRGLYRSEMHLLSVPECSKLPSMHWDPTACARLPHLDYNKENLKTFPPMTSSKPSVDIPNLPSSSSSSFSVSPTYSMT

T5: mECD: full-length extracellular region of mouse MuSK (E22 to T494) with C-terminal Avi- and His6-tags (mouse, UniProt Q61006 22-494, biotinylated in vitro using the BirA enzyme)
T5 construct: range 22-494; also called mouse ECD; not shown: Avi- and His6-tags
T5 sequence (looked up): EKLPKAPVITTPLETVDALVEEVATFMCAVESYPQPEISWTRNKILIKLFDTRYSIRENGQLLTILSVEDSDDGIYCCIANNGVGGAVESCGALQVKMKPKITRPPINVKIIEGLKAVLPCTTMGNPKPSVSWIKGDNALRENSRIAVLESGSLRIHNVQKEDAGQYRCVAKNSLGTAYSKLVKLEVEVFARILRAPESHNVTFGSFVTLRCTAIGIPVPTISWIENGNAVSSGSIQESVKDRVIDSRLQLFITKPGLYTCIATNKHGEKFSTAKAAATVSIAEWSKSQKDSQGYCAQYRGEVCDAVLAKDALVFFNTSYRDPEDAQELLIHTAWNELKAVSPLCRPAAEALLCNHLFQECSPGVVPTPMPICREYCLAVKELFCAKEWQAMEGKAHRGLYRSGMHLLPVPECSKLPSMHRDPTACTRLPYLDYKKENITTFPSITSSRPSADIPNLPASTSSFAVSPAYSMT

T6: mFz: Fz domain and C-terminal flanking sequence of mouse MuSK (D307 to T494) with C-terminal Avi- and … (mouse, UniProt Q61006 307-494, limits assumed, biotinylated in vitro using the BirA enzyme)
T6 construct: also called mouse Fz; not shown: Avi- and His6-tags
T6 sequence (looked up): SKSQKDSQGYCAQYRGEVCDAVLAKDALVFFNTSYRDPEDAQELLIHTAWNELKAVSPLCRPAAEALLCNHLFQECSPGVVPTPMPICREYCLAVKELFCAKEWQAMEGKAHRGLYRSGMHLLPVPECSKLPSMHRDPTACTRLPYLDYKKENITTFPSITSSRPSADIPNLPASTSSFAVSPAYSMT


Columns and labels:
human MuSK = target: T1, human MuSK; assay: Biacore T200, MuSK on chip (200RU), 22.2 nM Fab, dissociation pH 7.4
Summary of the method: (§1)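 Surface plasmon resonance was run with both human and mouse MuSK immobilized on the sensor chip. Fab association was always performed at pH 7.4 before the dissociation phase. Kinetic parameters were calculated from the binding curves.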

mouse MuSK = target: T2, mouse MuSK; assay: as above
Summary of the method: as §1

[1] = target: T3, hECD: full-length extracellular region …; assay: bead-binding titration, Fab format: antigen immobilized on streptavidin beads, MFI by flow cytometry, curve is the 1:1 fit
[2] = target: T4, hFz: Fz domain and C-terminal flanking …; assay: as above
[3] = target: T5, mECD: full-length extracellular region …; assay: as above
[4] = target: T6, mFz: Fz domain and C-terminal flanking …; assay: as above

Row | koff (human MuSK) | koff (mouse MuSK) | EC50 (read off the curve) [1] | EC50 (read off the curve) [2] | EC50 (read off the curve) [3] | EC50 (read off the curve) [4] | Binder
1 | 0.00057 s⁻¹ | 0.00053 s⁻¹ | ~0.9 nM | ~0.5 nM | ~0.6 nM | ~0.5 nM | X2 Fab (Fab, V domains shown, Fab format) VH: EVQLVESGGGLVQPGGSLRLSCAASGFTVSSSSIHWVRQAPGKGLEWVASISSSYGSTSYADSVKGRFTISADTSKNTAYLQMNSLRAEDTAVYYCARSEGDRYVSGYMGMDYWGQGTLVTVSS VL: DIQMTQSPSSLSASVGDRVTITCRASQSVSSAVAWYQQKPGKAPKLLIYSASSLYSGVPSRFSGSRSGTDFTLTISSLQPEDFATYYCQQSGVWLITFGQGTKVEIK
2 | 0.00063 s⁻¹ | 0.00558 s⁻¹ | ~0.2 nM | ~0.1 nM | ~0.4 nM | ~0.3 nM | X3 Fab (Fab, V domains shown, Fab format) VH: EVQLVESGGGLVQPGGSLRLSCAASGFTISSSSIHWVRQAPGKGLEWVASISSSSGYTYYADSVKGRFTISADTSKNTAYLQMNSLRAEDTAVYYCARSWYEMWMSGYFGFDYWGQGTLVTVSS VL: DIQMTQSPSSLSASVGDRVTITCRASQSVSSAVAWYQQKPGKAPKLLIYSASSLYSGVPSRFSGSRSGTDFTLTISSLQPEDFATYYCQQSSSSLITFGQGTKVEIK

Reference: patent US20230151091A1 (NEW YORK UNIVERSITY, published 2023)
